5 molecules from publication PMC4551902, “Aquaporins Mediate Silicon Transport in Humans” (PLoS ONE, 2015) can be followed below.

Series [1] has as its target T1, AQP9 (Homo sapiens, UniProt O43315).
T1 construct: full-length human cDNA in Pol1 vector, untagged, expressed in Xenopus laevis oocytes
T1 sequence (O43315 1-295): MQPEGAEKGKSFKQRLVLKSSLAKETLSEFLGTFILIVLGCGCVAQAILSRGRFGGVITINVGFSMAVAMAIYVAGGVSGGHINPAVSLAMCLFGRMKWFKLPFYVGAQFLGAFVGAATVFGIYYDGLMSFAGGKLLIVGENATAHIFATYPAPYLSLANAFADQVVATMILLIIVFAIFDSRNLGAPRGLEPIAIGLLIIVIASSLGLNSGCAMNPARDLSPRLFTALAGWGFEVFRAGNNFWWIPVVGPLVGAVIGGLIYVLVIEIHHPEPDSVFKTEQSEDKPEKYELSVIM
The series can be described thus: Si influx and osmotic water transport in oocytes. The series is classed as cell-based. The note with it: 0.1 mM phloretin; Si influx: B2a hypoosmolar medium, 2 mM H4SiO4, 30 min; water transport: ~10 mM sucrose, 20 s.

Series [2] addresses T2, lsi1 (Oryza sativa, UniProt Q6Z2T3).
T2 construct: gene NIP2-1; expressed in Xenopus laevis oocytes
T2 sequence (Q6Z2T3 1-298): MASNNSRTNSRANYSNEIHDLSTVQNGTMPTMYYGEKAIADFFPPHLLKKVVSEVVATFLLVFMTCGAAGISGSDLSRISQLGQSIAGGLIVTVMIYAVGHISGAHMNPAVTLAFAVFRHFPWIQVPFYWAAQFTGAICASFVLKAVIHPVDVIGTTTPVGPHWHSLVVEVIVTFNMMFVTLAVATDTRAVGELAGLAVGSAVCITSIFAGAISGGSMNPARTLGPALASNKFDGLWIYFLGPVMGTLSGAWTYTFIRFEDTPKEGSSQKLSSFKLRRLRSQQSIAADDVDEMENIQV
Briefly: 68Ge influx into oocytes, liquid scintillation counting. The series is classed as cell-based. The note with it: 2 mM H4GeO4 with 68Ge tracer, B1 medium, pH 7.4, 90 min; labelled compound.

Substrate in series [3]: O[Si](O)(O)O
Briefly: cells, lysate or membranes. The note with it: B1 medium, 4-parameter logistic fit.

As to `O=C(CCc1ccc(O)cc1)c1c(O)cc(O)cc1O` [phloretin], the “effect on Si influx and water transport at 0.1 mM” value in series [1] was “Si transport by AQP9 is seen to be stimulated by the water transport inhibitor phloretin”.

For `[OH][Ge]([OH])([OH])[OH]` [H4GeO4], the “68Ge influx into oocytes, liquid scintillation counting” value in series [2] is recorded as “significantly different relative to background, between channels (for a given substrate)”.

B1: AQP9 (Homo sapiens) (protein)
chain: MQPEGAEKGKSFKQRLVLKSSLAKETLSEFLGTFILIVLGCGCVAQAILSRGRFGGVITINVGFSMAVAMAIYVAGGVSGGHINPAVSLAMCLFGRMKWFKLPFYVGAQFLGAFVGAATVFGIYYDGLMSFAGGKLLIVGENATAHIFATYPAPYLSLANAFADQVVATMILLIIVFAIFDSRNLGAPRGLEPIAIGLLIIVIASSLGLNSGCAMNPARDLSPRLFTALAGWGFEVFRAGNNFWWIPVVGPLVGAVIGGLIYVLVIEIHHPEPDSVFKTEQSEDKPEKYELSVIM
Regarding B1, the K0.5 in series [3] (pH 7.4, 0-2 mM H4SiO4, 30 min) turned out to be 117 µM.

B2: AQP10 (Homo sapiens) (protein)
chain: MVFTQAPAEIMGHLRIRSLLARQCLAEFLGVFVLMLLTQGAVAQAVTSGETKGNFFTMFLAGSLAVTIAIYVGGNVSGAHLNPAFSLAMCIVGRLPWVKLPIYILVQLLSAFCASGATYVLYHDALQNYTGGNLTVTGPKETASIFATYPAPYLSLNNGFLDQVLGTGMLIVGLLAILDRRNKGVPAGLEPVVVGMLILALGLSMGANCGIPLNPARDLGPRLFTYVAGWGPEVFSAGNGWWWVPVVAPLVGATVGTATYQLLVALHHPEGPEPAQDLVSAQHKASELETPASAQMLECKL
Consider B2, for which the K0.5 in series [3] (pH 7.4, 0-2 mM H4SiO4, 60 min) stood at 470 µM.

B3: AQP7 (Homo sapiens) (protein)
chain: MVQASGHRRSTRGSKMVSWSVIAKIQEILQRKMVREFLAEFMSTYVMMVFGLGSVAHMVLNKKYGSYLGVNLGFGFGVTMGVHVAGRISGAHMNAAVTFANCALGRVPWRKFPVYVLGQFLGSFLAAATIYSLFYTAILHFSGGQLMVTGPVATAGIFATYLPDHMTLWRGFLNEAWLTGMLQLCLFAITDQENNPALPGTEALVIGILVVIIGVSLGMNTGYAINPSRDLPPRIFTFIAGWGKQVFSNGENWWWVPVVAPLLGAYLGGIIYLVFIGSTIPREPLKLEDSVAYEDHGITVLPKMGSHEPTISPLTPVSVSPANRSSVHPAPPLHESMALEHF
For B3, the K0.5 in series [3] (pH 7.4, 0-2 mM H4SiO4 (value above tested range), 90 min) turned out to be 2300 µM.
